How the values were obtained:
[1] = biological target: T1, TRCW5 antigen (CD3δε-Fc-Avi) (biotinylated (site not stated)); assay: ELISA after heat
T1 construct: also called recombinant CD3

[2] = biological target: T1, TRCW5 antigen (CD3δε-Fc-Avi); assay: ELISA, E. coli scFv on biotinylated TRCW5
Protocol: (§1) Briefly, DNA was transformed into an E. coli expression vector to generate scFv molecules having a C-terminal HA-tag, and cells were plated on 2×YT/Carb/2% Glucose grown overnight at 37 C. Colonies were picked and transferred 50 ul of overnight growth cultures to new plates containing 500 ul of 2×YT/Carb/0.1% Glucose, grown for 6-7 hr, and combined with 50 ul 2×YT medium containing 1×carbenicillin & 12×IPTG. Cultures were incubated with shaking ˜600 RPM 30° C. overnight. Streptavidin coated plates were bound with 50 μL of biotinylated TRCW5 antigen (CD3δε-Fc-Avi, SEQ ID NO: 39) at the concentrations indicated in the ELISA graph for 45 min at room temperature with shaking (FIG. 1, FIG. 3, FIG. 4) followed by washing 3× with 1×TBST. Plates were blocked with 200 ul 3% Milk in 1×TBST for ˜45 mins at room temperature followed by washing 3× with 1×TBST. E. coli cultures were harvested by centrifugation at […] for 10 mins 4° C. and 50 μL of supernatant was transferred into CD3-coated plates followed by incubation at 4 C for 45 min. Plates were washed 3× with 1×TBST. Bound scFv was detected with Chicken Polyclonal Anti-HA-HRP (ab1190) [1:1000] for ˜45 mins RT and luminescence detected with chemi-luminescent substrate.

[3] = biological target: T1, TRCW5 antigen (CD3δε-Fc-Avi); assay: ELISA: biotinylated TRCW5 on streptavidin plates at the [CD3] of the x axis, E. coli scFv supernatant, anti-HA-HRP, luminescence
Protocol: as §1

[4] = biological target: T1, TRCW5 antigen (CD3δε-Fc-Avi); assay: ELISA: biotinylated TRCW5 on streptavidin plates at the antigen concentration of the x axis, E. coli scFv supernatant, anti-HA-HRP, luminescence
Protocol: as §1

[5] = biological target: PSMA on C4-2B human prostate tumor cells (human, UniProt Q04609 1-750); assay: flow cytometry, C4-2B cells
PSMA on C4-2B human prostate tumor cells, sequence (Q04609 whole entry): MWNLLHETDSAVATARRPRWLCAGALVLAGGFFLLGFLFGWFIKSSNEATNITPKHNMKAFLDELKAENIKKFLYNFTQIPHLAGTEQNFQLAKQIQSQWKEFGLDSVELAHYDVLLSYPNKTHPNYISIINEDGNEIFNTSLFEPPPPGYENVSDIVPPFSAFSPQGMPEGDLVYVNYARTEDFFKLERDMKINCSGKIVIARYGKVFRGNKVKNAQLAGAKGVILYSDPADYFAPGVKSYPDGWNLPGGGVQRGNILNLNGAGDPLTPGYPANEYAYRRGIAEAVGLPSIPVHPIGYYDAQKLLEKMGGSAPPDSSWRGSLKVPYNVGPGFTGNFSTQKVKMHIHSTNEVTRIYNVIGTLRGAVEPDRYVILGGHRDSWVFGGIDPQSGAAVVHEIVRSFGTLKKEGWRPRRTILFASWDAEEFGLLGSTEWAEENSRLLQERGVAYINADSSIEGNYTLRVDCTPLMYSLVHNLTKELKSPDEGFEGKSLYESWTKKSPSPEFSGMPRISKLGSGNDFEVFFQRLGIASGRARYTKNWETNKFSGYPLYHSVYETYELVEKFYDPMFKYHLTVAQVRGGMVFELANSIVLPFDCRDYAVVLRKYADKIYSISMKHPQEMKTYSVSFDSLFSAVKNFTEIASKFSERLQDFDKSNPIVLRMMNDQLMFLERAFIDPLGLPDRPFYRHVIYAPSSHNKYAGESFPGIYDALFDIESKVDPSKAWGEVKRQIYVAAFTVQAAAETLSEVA
Protocol: Molecule concentrations ranged from 500-0 nM over 12-points at 3-fold dilution. […] Values reported in the Table 69 were generated by fitting the data to a four-parameter function for ligand binding generating values for y-min, y-max, EC50, and Hill. EC90 were calculated using the equation EC90=[…]\hat{ }(1/Hill)*EC50.

[6] = biological target: T2, human PSMA on prostate cancer cell lines (22RV1, C4-2B) (human, UniProt Q04609 1-750); assay: flow cytometry on C4-2B cells
T2 construct: also called PSMA-expressing cell lines
T2 sequence (Q04609 whole entry): as above
Protocol: (§2) 22RV1 and C4-2B cells were plated at 50,000 cells per well in 50 μl of assay medium (RPMI, 10% HI FBS) in V bottom plates. Serial dilutions of antibodies were prepared in assay medium with 50 μl of antibody dilutions added to the plates containing cells. The plates were incubated for 60 min at 37° C. at which time 100 μl of staining buffer (Becton Dickinson Cat #554657) was added to all wells of each plate. The plates were centrifuged at 300×G for 5 minutes and the medium was removed from the wells. 200 μl of staining buffer was added to all wells of each plate. The plates were centrifuged at 300× G for 5 minutes and the medium was removed from the wells. 50 μl of 2 μg/ml AlexaFluor647-labeled goat anti-human Fc was added to all wells of the plates and the plates were incubated for 30 minutes at 4° C. 150 μl of staining buffer was added to all wells of each plate. The plates were centrifuged at 300× G for 5 minutes and the medium was removed from the wells.

[7] = biological target: T2, human PSMA on prostate cancer cell …; assay: flow cytometry on 22RV1 cells; 22RV1 cells
Protocol: as §2

T1 sequence (chain, as listed by the source mutant limits assumed): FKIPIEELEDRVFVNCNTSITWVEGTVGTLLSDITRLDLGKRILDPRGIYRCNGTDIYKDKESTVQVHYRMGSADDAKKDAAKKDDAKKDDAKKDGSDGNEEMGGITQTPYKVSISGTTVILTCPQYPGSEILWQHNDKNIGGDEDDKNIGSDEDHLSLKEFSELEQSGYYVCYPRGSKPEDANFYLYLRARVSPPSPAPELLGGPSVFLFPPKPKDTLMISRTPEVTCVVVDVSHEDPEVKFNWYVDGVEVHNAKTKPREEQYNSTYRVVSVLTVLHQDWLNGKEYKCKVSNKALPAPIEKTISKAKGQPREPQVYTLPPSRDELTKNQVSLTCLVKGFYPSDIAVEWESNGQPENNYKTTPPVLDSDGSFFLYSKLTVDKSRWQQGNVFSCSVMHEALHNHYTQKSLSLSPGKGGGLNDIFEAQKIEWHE

B1: CD3B1127 (scFv)
scFv: QVQLQQSGAELARPGASVKMSCKASGYTFTRSTMHWVKQRPGQGLEWIGYINPSSAYTNYNQKFKDKATLTADKSSSTAYMQLSSLTSEDSAVYYCASPQVHYDYNGFPYWGQGTLVTVSAGGSEGKSSGSGSESKSTGGSQVVLTQSPAIMSAFPGEKVTMTCSASSSVSYMNWYQQKSGTSPKRWIYDSSKLASGVPARFSGSGSGTSYSLTISSMETEDAATYYCQQWSRNPPTFGGGTKLQIT
notes: also called Murine HL; murine Cris-7 scFv (HL)
- % Retained 55° C. [1]: 19%
- % Retained 60° C. [1]: 0%
- % Retained 65° C. [1]: 1%
- EC50 [2]: ~0.397 nM
- EC50 (read off the curve) [3]: ~0.4 nM

B2: CD3B1136 (scFv)
scFv, VL-linker-VH (LH): EIVLTQSPATLSLSPGERATLSCSASSSVSYMNWYQQKPGTSPRRLIYDSSKLASGIPARFSGSGSGRDYTLTISSLEPEDFAVYYCQQWSRNPPTFGGGTKVEIKGGSEGKSSGSGSESKSTGGSEVQLVQSGAEVKKPGESLRISCKASGYTFTRSTMHWVRQMPGKGLEWMGYINPSSAYTNYNPSFQGHVTLSADKSISTAYLQWSSLKASDTAMYYCARPQVHYDYNGFPYWGQGTLVTVSS
- binding result [4]: no binding (tested: 10 ug/ml (antigen))

B3: PSMB1069 (bispecific antibody, human IgG1, kappa, L234A L235A)
heavy: not shown
light: not shown
chain: QVQLVESGGGEVQPGRSLRLSCAASGFSFSGYGMHWVRQAPGKGLEWVAVMSYDGSNRFYVDSVRGRFSISRDNSKNTLYLQMNSLRPEDTAVYYCARDTVWGSHPDAFDIWGQGTVVTVSSGGSEGKSSGSGSESKSTGGSQSVLTQPPSVSVAPGQTARITCGGNNSGSKSVHWYQQKPGQAPVLVVYDDSDRPSGIPERFSGSNSGNTATLTISRVEAGDEADYYCQVWDSSSDHGVFGGGTKLTVLEPKSSDKTHTCPPCPAPEAAGGPSVFLFPPKPKDTLMISRTPEVTCVVVSVSHEDPEVKFNWYVDGVEVHNAKTKPREEQYNSTYRVVSVLTVLHQDWLNGKEYKCKVSNKALPAPIEKTISKAKGQPREPQVYVLPPSREEMTKNQVSLLCLVKGFYPSDIAVEWESNGQPENNYLTWPPVLDSDGSFFLYSKLTVDKSRWQQGNVFSCSVMHEALHNHYTQKSLSLSPG
notes: HC1/LC1 null arm; HC2 is the anti-PSMA scFv-Fc
- fold binding signal (Y-max) over the average [5]: 2 fold

B4: PS3B918 (bispecific antibody, human IgG1, lambda, L234A L235A)
heavy 1: QVQLQQSGPRLVRPSQTLSLTCAISGDSVFNNNAAWSWIRQSPSRGLEWLGRTYYRSKWLYDYAVSVKSRITVNPDTSRNQFTLQLNSVTPEDTALYYCARGYSSSFDYWGQGTLVTVSSASTKGPSVFPLAPSSKSTSGGTAALGCLVKDYFPEPVTVSWNSGALTSGVHTFPAVLQSSGLYSLSSVVTVPSSSLGTQTYICNVNHKPSNTKVDKKVEPKSCDKTHTCPPCPAPEAAGGPSVFLFPPKPKDTLMISRTPEVTCVVVSVSHEDPEVKFNWYVDGVEVHNAKTKPREEQYNSTYRVVSVLTVLHQDWLNGKEYKCKVSNKALPAPIEKTISKAKGQPREPQVYTLPPSREEMTKNQVSLTCLVKGFYPSDIAVEWESNGQPENNYKTTPPVLDSDGSFLLYSKLTVDKSRWQQGNVFSCSVMHEALHNHYTQKSLSLSPG
light 1: QSALTQPASVSGSPGQSITISCTGTSSNIGTYKFVSWYQQHPDKAPKVLLYEVSKRPSGVSSRFSGSKSGNTASLTISGLQAEDQADYHCVSYAGSGTLLFGGGTKLTVLGQPKAAPSVTLFPPSSEELQANKATLVCLISDFYPGAVTVAWKADSSPVKAGVETTTPSKQSNNKYAASSYLSLTPEQWKSHRSYSCQVTHEGSTVEKTVAPTECS
heavy 2: EVQLVESGGGLVKPGGSLRLSCAASGFTFSRYNMNWVRQAPGKGLEWVSSINSNSRYIYYADSVKGRFTISRDSAKNSLYLQMNSLRAEDTAVYYCAKTMGDYYYYYGMDVWGQGTTVTVSSASTKGPSVFPLAPSSKSTSGGTAALGCLVKDYFPEPVTVSWNSGALTSGVHTFPAVLQSSGLYSLSSVVTVPSSSLGTQTYICNVNHKPSNTKVDKKVEPKSCDKTHTCPPCPAPEAAGGPSVFLFPPKPKDTLMISRTPEVTCVVVSVSHEDPEVKFNWYVDGVEVHNAKTKPREEQYNSTYRVVSVLTVLHQDWLNGKEYKCKVSNKALPAPIEKTISKAKGQPREPQVYTLPPSREEMTKNQVSLTCLVKGFYPSDIAVEWESNGQPENNYKTTPPVLDSDGSFFLYSRLTVDKSRWQQGNVFSCSVMHEALHNHYTQKSLSLSPG
light 2: SSELTQPPSVSGAPGQRVTISCAGSLSNIGAGYDVHWYQQLPGTAPKLLIYGNINRLSGVPERFSGSKSGTSASLAITGLQAEDGADYYCQSYDSSLSSYVFGTGTKVTVLGQPKAAPSVTLFPPSSEELQANKATLVCLISDFYPGAVTVAWKADSSPVKAGVETTTPSKQSNNKYAASSYLSLTPEQWKSHRSYSCQVTHEGSTVEKTVAPTECS
notes: FAB-A: CD3B891 (CD3B376 - K477); FAB-B: PSMB890
- EC50 [6]: 60 nM
- EC50 [7]: ≥ 60 nM

Reference: US20250145711A1 (Janssen / Centocor, published 2025)
